Laboratory results published in patent publication US20180155451A1 (published 2018).
Changes are numbered by the printed parent chain. In names and notes the source's numbering stands. Read-outs that look alike come from different tables or passages of the source.

What was measured:
[1] = target: T1, FcgRIa extracellular domain with C-terminal His tag (human, UniProt P12314 16-292); test: SPR (Biacore), antibody captured on chip, FcγR extracellular domain as analyte, kinetic analysis
T1 construct: extracellular domain; Expressed in FreeStyle293 cells; used as analyte in Biacore; also called FcγRIa; FcγRI; not shown: His tag attached to the C terminus
Method: (§1) Analysis of interaction between obj ective antibody and the FcγR was carried out using Biacore T100 (GE Healthcare), Biacore T200, Biacore A100, and Biacore 4000. HBS-EP+ (GE Healthcare) was used as the running buffer, and the measurement temperature was set to 25° C. Chips produced by immobilizing the antigen peptide by the amine coupling method to a Series S sensor Chip CM5 (GE Healthcare), chips produced by allowing preliminarily biotinylated antigen peptides to interact with and immobilize onto a Series S Sensor Chip SA (certified) (GE Healthcare), chips produced by immobilizing Protein L (ACTIGEN, BioVision) to Series S Sencor Chip CM5 (GE Healthcare), or chips produced by immobilizing Protein A/G (Thermo Scientific) to Series S Sencor Chip CM5 (GE Healthcare) were used. Antibodies of interest were captured onto these chips, and allowed to interact to each FcγR diluted with running buffer. To regenerate and repeatedly use the chip, the antibodies captured onto the chip were washed off by reacting 10 mM glycine-HCl, pH 1.5.

[2] = target: T2, FcgRIIb extracellular domain with C-terminal His tag (human, UniProt P31994 43-217); test: as above
T2 construct: extracellular domain; also called FcγRIIb; not shown: His tag attached to the C terminus
T2 sequence (looked up): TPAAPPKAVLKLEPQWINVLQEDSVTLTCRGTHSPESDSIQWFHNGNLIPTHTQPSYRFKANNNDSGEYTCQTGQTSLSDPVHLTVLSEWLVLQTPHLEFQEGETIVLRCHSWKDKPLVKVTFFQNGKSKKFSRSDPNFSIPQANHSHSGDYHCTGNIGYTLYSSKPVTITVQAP
Method: as §1

[3] = target: T3, FcgRIIa H extracellular domain with C-terminal His tag (human, UniProt P12318 34-217); test: as above
T3 construct: extracellular domain; also called FcγRIIa H; FcγRIIa type H; not shown: His tag attached to the C terminus
T3 sequence (looked up): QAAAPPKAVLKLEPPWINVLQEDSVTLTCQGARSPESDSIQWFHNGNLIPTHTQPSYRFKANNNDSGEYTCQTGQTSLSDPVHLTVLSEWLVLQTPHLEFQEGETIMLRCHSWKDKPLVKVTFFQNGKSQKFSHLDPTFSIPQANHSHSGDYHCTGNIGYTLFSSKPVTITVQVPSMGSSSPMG
Method: as §1

[4] = target: T4, FcgRIIa R extracellular domain with C-terminal His tag (human, UniProt P12318 34-217); test: as above
T4 construct: extracellular domain; also called FcγRIIa R; FcγRIIa type R; not shown: His tag attached to the C terminus
T4 sequence (looked up): T3 sequence (looked up) with H134R
Method: as §1

[5] = target: T5, FcgRIIIa F extracellular domain with C-terminal His tag (human, UniProt P08637 17-208); test: as above
T5 construct: extracellular domain; also called FcγRIIIa F; FcγRIIIa (F158); not shown: His tag attached to the C terminus
Method: as §1

[6] = target: T6, FcgRIIIa V extracellular domain with C-terminal His tag (human, UniProt P08637 17-208); test: as above
T6 construct: extracellular domain; also called FcγRIIIa V; FcγRIIIa (V158); not shown: His tag attached to the C terminus
Method: as §1

[7] = target: T5, FcgRIIIa F extracellular domain with …; test: as above; remark: listed apart in the source
Method: as §1

[8] = target: T6, FcgRIIIa V extracellular domain with …; test: as above; remark: listed apart in the source
Method: as §1

[9] = target: T7, FcgRIIIa F (human, UniProt P08637 17-208); test: SPR (Biacore), antibody captured on chip, FcgR extracellular domain as analyte
T7 construct: extracellular domain; also called FcγRIIIa F; not shown: His tag attached to the C terminus
Method: (§2) Similarly, H240-AK072 and L73-k0, and H240-BH076 and L73-k0 were each combined to express and prepare the homodimerized antibodies H240-AK072/L73-k0 and H240-BH076/L73-k0. The antibodies were compared for the binding to each FcgR according to the method described in Reference Example 8.
as §1

[10] = target: T8, FcgRIIIa V (human, UniProt P08637 17-208); test: as above
T8 construct: extracellular domain; also called FcγRIIIa V; not shown: His tag attached to the C terminus
Method: as §2, §1

[11] = target: T7, FcgRIIIa F; test: as above; remark: listed apart in the source
Method: as §1

[12] = target: T9, FcgRIa (human, UniProt P12314 16-292); test: as above
T9 construct: extracellular domain; Expressed in FreeStyle293 cells and purified; used as analyte in Biacore; also called FcγRIa; FcγRI; not shown: His tag attached to the C terminus
Method: as §1

[13] = target: T8, FcgRIIIa V; test: as above; remark: listed apart in the source
Method: as §1

[14] = target: T10, FcgRIIa H (human, UniProt P12318 34-217); test: as above
T10 construct: extracellular domain; also called FcγRIIa H; FcγRIIa type H; not shown: His tag attached to the C terminus
T10 sequence (looked up): T3 sequence (looked up)
Method: as §1

[15] = target: T11, FcgRIIb (human, UniProt P31994 43-217); test: as above
T11 construct: extracellular domain; Expressed in FreeStyle293 cells and purified; used as analyte in Biacore; also called FcγRIIb; CD32B; not shown: His tag attached to the C terminus
T11 sequence (looked up): T2 sequence (looked up)
Method: as §1

[16] = target: T12, FcgRIIa R (human, UniProt P12318 34-217); test: as above
T12 construct: extracellular domain; also called FcγRIIa R; FcγRIIa type R; not shown: His tag attached to the C terminus
T12 sequence (looked up): T3 sequence (looked up) with H134R
Method: as §1

T8 sequence (P08637 17-208 F176V limits assumed): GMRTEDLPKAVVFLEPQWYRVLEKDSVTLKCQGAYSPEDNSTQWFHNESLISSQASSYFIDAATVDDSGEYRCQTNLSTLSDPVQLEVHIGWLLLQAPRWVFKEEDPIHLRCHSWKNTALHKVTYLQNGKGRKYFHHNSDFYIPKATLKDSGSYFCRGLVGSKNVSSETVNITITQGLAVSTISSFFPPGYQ
T7 sequence (P08637 17-208): as the sequence (P08637 17-208 F176V limits assumed) above, with V160F counted along it
T6 sequence (P08637 17-208 F176V): as the sequence (P08637 17-208 F176V limits assumed) above
T5 sequence (P08637 17-208): as the sequence (P08637 17-208 F176V limits assumed) above, with V160F counted along it
T9 sequence (P12314 16-292): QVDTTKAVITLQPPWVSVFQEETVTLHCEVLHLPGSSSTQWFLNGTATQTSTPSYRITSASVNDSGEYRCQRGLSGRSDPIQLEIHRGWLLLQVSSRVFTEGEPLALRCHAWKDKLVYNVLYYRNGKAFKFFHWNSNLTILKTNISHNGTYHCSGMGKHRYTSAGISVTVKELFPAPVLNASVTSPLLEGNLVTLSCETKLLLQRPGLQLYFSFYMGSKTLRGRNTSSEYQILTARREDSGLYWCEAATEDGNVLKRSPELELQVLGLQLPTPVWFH
T1 sequence (P12314 16-292): as above

B1: H240-Kn061/H240-Hl071/L73-k0 (antibody, human IgG1, kappa)
heavy 1: QDQLVQSGAEVKKPGASVKVSCKASGFNIKDTYIQWVRQAPGQGLEWMGRIDPLRKQTKYREKFEGRVTITADTSTNTAYMELSSLRSEDTAVYYCVRSGREFDYWGQGTLVTVSSASTKGPSVFPLAPSSKSTSGGTAALGCLVKDYFPEPVTVSWNSGALTSGVHTFPAVLQSSGLYSLSSVVTVPSSSLGTQTYICNVNHKPSNTKVDKKVEPKSCDKTHTCPPCPAPEYYWGPSVFLFPPKPKDTLMISRTPEVTCVVVDVSDEDPEVKFNWYVDGVEVHNAKTKPREEQYNATYRVVSVLTVLHQDWLNGKEYKCKVSNKALPAPIEKTISKAKGQPREPQVCTLPPSRDELTKNQVSLWCLVKGFYPSDIAVEWESNGQPENNYKTTPPVLDSDGSFFLYSKLTVDKSRWQQGNVFSCSVMHEALHNHYTQKSLSLSP
heavy 2: QDQLVQSGAEVKKPGASVKVSCKASGFNIKDTYIQWVRQAPGQGLEWMGRIDPLRKQTKYREKFEGRVTITADTSTNTAYMELSSLRSEDTAVYYCVRSGREFDYWGQGTLVTVSSASTKGPSVFPLAPSSKSTSGGTAALGCLVKDYFPEPVTVSWNSGALTSGVHTFPAVLQSSGLYSLSSVVTVPSSSLGTQTYICNVNHKPSNTKVDKKVEPKSCDKTHTCPPCPAPELLGGPSVFLFPPKPKDTLMISRTPEVTCVVVDVSHEDPEVKFNWYVDGVEVHNAKTKPREEQYNSTYRVVSVLTVLHQDWLNGKEYKCKVSNDALPMPIEETISKAKGQPREPQVYTLPPSRCELTKNQVSLSCAVKGFYPSDIAVEWESNGQPENNYKTTPPVLDSDGSFFLVSKLTVDKSRWQQGNVFSCSVMHEALHNHYTQKSLSLSP
light: DIQMTQSPSSLSASVGDRVTITCRASQDIHKYIAWYQQKPGQAPRLLIQYTSTLQPGVPSRFSGSGSGTDYTFTISSLQPEDIATYYCLQYEQLRTFGGGTKVEIKRTVAAPSVFIFPPSDEQLKSGTASVVCLLNNFYPREAKVQWKVDNALQSGNSQESVTEQDSKDSTYSLSSTLTLSKADYEKHKVYACEVTHQGLSSPVTKSFNRGEC
notes: Kn061: L234Y/L235Y/G236W/H268D/S298A; Hl071: K326D/A330M/K334E; also called H240-Kn061/H240-HI071/L73-k0
- Kd [1]: 0.14 nM
- Kd [2]: 1200 nM
- Kd [3]: 280 nM
- Kd [4]: 350 nM
- Kd [5]: 5.1 nM
- Kd [6]: 1.8 nM
- Kd [7]: 5.1 nM
- Kd [8]: 1.8 nM

B2: H240-AK072/L73-k0 (antibody, human IgG1, kappa)
heavy: B1 heavy 1 with D269E, C348Y, D355K, L357M, W365T, H434R
light: B1 light
notes: Homodimerized anti-EREG IgG1: H240-A5E (D356K/H435R) with L234Y/L235Y/G236W/H268D/D270E/S298A in both H chains
- Kd [9]: 300 nM
- Kd [10]: 29 nM

B3: H240-BH076/L73-k0 (antibody, human IgG1, kappa)
heavy: B1 heavy 2 with D269E, C355E, L357M, S365T, A367L, V406Y, K438E
light: B1 light
notes: Homodimerized anti-EREG IgG1: H240-B3E (K439E) with D270E/K326D/A330M/K334E in both H chains
- Kd [9]: 26 nM
- Kd [10]: 5.3 nM

B4: H240-AK072/H240-BH076/L73-k0 (antibody, human IgG1, kappa)
heavy 1: B1 heavy 1 with D269E, C348Y, D355K, L357M, W365T, H434R
heavy 2: B1 heavy 2 with D269E, C355E, L357M, S365T, A367L, V406Y, K438E
light: B1 light
notes: Heterodimerized anti-EREG IgG1 made with D356K/H435R and K439E in place of knobs-into-holes
- Kd [11]: 3.7 nM
- Kd [12]: 0.24 nM
- Kd [13]: 0.98 nM
- Kd [14]: 130 nM
- Kd [15]: 2900 nM
- Kd [16]: 460 nM
- Kd [9]: 3.7 nM
- Kd [10]: 0.98 nM
